The data set deals with hRPA1;hRPA2;hRPA3 (Homo sapiens;Homo sapiens;Homo sapiens, UniProt P27694;P15927;P35244 1-616;1-270;1-121, ||). In words: FRET kinetics.
hRPA1;hRPA2;hRPA3, sequence (P27694 whole entry, chain 1 of 3): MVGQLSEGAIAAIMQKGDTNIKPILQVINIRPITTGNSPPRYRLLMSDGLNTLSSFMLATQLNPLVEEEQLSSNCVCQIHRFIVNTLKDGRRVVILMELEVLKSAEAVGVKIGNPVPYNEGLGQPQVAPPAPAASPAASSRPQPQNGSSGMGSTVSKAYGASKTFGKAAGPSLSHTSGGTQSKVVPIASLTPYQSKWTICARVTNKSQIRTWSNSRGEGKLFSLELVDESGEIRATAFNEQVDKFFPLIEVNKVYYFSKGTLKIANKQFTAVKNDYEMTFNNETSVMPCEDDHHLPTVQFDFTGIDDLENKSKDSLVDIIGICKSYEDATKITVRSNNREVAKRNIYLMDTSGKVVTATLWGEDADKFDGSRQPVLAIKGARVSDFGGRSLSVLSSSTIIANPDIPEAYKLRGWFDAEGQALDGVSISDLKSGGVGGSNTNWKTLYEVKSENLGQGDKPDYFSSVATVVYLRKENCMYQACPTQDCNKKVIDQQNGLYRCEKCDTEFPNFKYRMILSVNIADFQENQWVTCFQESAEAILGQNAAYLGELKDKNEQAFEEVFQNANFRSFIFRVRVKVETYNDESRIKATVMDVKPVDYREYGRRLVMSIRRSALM
hRPA1;hRPA2;hRPA3, sequence (P15927 whole entry, chain 2 of 3): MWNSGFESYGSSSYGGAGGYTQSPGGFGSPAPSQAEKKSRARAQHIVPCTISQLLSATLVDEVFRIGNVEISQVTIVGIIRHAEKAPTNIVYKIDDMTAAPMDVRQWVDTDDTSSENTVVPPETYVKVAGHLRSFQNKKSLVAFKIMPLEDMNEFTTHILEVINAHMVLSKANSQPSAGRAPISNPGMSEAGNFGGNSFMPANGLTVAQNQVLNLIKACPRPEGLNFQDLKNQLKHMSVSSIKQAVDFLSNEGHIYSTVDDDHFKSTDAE
hRPA1;hRPA2;hRPA3, sequence (P35244 whole entry, chain 3 of 3): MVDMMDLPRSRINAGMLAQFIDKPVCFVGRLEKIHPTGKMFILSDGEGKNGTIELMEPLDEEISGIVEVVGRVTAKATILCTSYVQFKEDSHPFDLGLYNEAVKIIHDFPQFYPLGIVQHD

B1: H69-Q2 (structured_DNA)
DNA: GGGTTAGGGTTAGGGTTAGGGTTAGGGTTAGGGTTAGGGTTAGGGTTAGGGTTAGGGTTAGGGTTAGGG
modifications: 6FAM-dT in 4th repeat (T23); TAMRA-dT in 8th repeat (T47)
With B1, the binding result is reported as “binds”.
